Measured values taken from paper PMC2838725 (Biochemistry, 2010).
No end group written: not given here.

T1: C-terminal domain of Stt3p (residues 466-718), N-terminal His6-tagged (Saccharomyces cerevisiae, UniProt P39007 466-718)
T1 sequence (looked up): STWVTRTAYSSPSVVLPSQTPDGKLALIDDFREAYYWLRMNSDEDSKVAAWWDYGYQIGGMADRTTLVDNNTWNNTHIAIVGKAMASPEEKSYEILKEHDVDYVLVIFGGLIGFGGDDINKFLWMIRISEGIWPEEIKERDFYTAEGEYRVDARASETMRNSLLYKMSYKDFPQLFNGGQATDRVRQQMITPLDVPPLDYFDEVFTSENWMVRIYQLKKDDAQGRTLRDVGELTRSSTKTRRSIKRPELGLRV


Legend:
[1] = molecular target: C-terminal domain of Stt3p (residues 466-718), N-terminal His6-tagged (Saccharomyces cerevisiae) (UniProt P39007); assay: NMR titration
[2] = molecular target: T1, C-terminal domain of Stt3p (residues …); assay: saturation transfer difference

Molecule	Kd [1]	binding result [2]
substrate peptide Asn-Asp-Thr-NH2	9.97 mM	–
YNSTSC-NH2 [six-residue acceptor substrate peptide Tyr-Asn-Ser-Thr-Ser-Cys-Am]	–	binds
